In patent publication US20140087995A1 (published 2014):
Numbered stars: 1 amine (or outer) side, 2 acyl side, 3 side chain; on linkers, the order of the positions; unused ones are H or OH. Bridge positions count the residues as written; N and C are the ends. Side chains are listed from the residue outwards. Ends that are not written are not given here. * marks the point of attachment. C20 diacid = O=C(O)CCCCCCCCCCCCCCCCCCC(=O)*; γGlu = O=C(O)[C@H](CCC(=O)[*:2])N[*:1]

What was measured:
[1] = target: T1, human calcitonin receptor (human, UniProt P30988 25-474); assay: cell-based or functional assay
T1 sequence (looked up): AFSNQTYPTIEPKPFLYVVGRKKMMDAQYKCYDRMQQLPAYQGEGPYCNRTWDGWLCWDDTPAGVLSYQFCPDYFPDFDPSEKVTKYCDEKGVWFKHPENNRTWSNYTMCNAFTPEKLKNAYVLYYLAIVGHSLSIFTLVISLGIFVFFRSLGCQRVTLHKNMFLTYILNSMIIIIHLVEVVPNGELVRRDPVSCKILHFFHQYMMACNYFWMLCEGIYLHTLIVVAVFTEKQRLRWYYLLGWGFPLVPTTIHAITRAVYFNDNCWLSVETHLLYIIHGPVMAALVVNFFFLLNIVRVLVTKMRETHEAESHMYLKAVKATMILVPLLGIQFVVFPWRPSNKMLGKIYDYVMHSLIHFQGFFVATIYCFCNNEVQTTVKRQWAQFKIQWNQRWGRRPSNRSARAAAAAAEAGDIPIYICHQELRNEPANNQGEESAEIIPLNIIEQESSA

[2] = target: T2, human amylin receptor (amylin 3(a) receptor: human calcitonin receptor with RAMP-3) (human, UniProt P30988 25-474; O60896 24-148, limits assumed); assay: SPA competition binding on membranes of BHK cells with human calcitonin receptor + RAMP-3; displacement of 125I-rat amylin (Assay V)
T2 construct: whole, on cells; Whole cells in the luciferase assay (Assay II a); also called hAmylin-R; hAmylinR
T2 sequence (looked up) 1: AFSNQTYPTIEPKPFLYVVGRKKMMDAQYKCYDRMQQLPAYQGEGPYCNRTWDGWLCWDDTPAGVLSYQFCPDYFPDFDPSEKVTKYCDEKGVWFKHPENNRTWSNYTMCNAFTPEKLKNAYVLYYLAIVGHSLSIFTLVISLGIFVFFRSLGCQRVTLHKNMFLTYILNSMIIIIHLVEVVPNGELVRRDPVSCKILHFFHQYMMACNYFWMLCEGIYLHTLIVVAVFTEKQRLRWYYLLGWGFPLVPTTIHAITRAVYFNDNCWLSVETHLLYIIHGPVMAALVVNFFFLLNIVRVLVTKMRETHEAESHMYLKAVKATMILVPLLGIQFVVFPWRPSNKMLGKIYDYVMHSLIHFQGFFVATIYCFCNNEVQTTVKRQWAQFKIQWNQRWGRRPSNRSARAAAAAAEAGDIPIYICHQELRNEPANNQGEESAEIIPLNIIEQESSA
T2 sequence (looked up) 2: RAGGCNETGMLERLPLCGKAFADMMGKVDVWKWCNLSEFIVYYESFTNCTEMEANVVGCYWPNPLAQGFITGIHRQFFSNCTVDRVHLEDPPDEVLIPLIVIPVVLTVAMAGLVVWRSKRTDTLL
Procedure, shortened: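 SPA beads + BHK amylin 3(a)/CRE-luc membranes, 35 ng/μL final; buffer 50 mM Hepes pH 7.4, 1 mM CaCl2, 5 mM MgCl₂, 0.1% OA, 0.02% Tween20. 120 min, 25° C, shaken; scintillation count. IC₅₀ by one-site binding competition fit, taken as receptor affinity.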

B1: N^ε1-[(4S)-4-carboxy-4-(19-carboxynonadecanoylamino)butanoyl]-[Asp14,Arg17,Pro21,Pro27,Pro34,Arg35]-h-amylin (peptide)
peptide: K([γGlu-C20 diacid])CNTATCATQRLADFLRHSSPNFGAIPSSTNVGPRTY-NH2
modifications: disulfide 2-7; N-terminus assumed
SMILES: CC[C@H](C)[C@H](NC(=O)[C@H](C)NC(=O)CNC(=O)[C@H](Cc1ccccc1)NC(=O)[C@H](CC(N)=O)NC(=O)[C@@H]1CCCN1C(=O)[C@H](CO)NC(=O)[C@H](CO)NC(=O)[C@H](Cc1c[nH]cn1)NC(=O)[C@H](CCCNC(=N)N)NC(=O)[C@H](CC(C)C)NC(=O)[C@H](Cc1ccccc1)NC(=O)[C@H](CC(=O)O)NC(=O)[C@H](C)NC(=O)[C@H](CC(C)C)NC(=O)[C@H](CCCNC(=N)N)NC(=O)[C@H](CCC(N)=O)NC(=O)[C@@H](NC(=O)[C@H](C)NC(=O)[C@@H]1CSSC[C@H](NC(=O)[C@@H](N)CCCCNC(=O)CC[C@H](NC(=O)CCCCCCCCCCCCCCCCCCC(=O)O)C(=O)O)C(=O)N[C@@H](CC(N)=O)C(=O)N[C@@H]([C@@H](C)O)C(=O)N[C@@H](C)C(=O)N[C@@H]([C@@H](C)O)C(=O)N1)[C@@H](C)O)C(=O)N1CCC[C@H]1C(=O)N[C@@H](CO)C(=O)N[C@@H](CO)C(=O)N[C@H](C(=O)N[C@@H](CC(N)=O)C(=O)N[C@H](C(=O)NCC(=O)N1CCC[C@H]1C(=O)N[C@@H](CCCNC(=N)N)C(=O)N[C@H](C(=O)N[C@@H](Cc1ccc(O)cc1)C(N)=O)[C@@H](C)O)C(C)C)[C@@H](C)O
B1 was tested, and the “Ratio hCT/hAmylin funct.” value [1] was 24.9 ratio, the “hCTR funct. EC50 (pM)” value [1] was 3640 pM and the IC50 [2] was 0.281 nM.

B2: N^ε1-[(4S)-4-carboxy-4-(19-carboxynonadecanoylamino)butanoyl]-[Glu14,Arg17,Pro21,Pro27,Pro34,Arg35]-h-amylin (peptide)
peptide: K([γGlu-C20 diacid])CNTATCATQRLAEFLRHSSPNFGAIPSSTNVGPRTY-NH2
modifications: disulfide 2-7; N-terminus assumed
SMILES: CC[C@H](C)[C@H](NC(=O)[C@H](C)NC(=O)CNC(=O)[C@H](Cc1ccccc1)NC(=O)[C@H](CC(N)=O)NC(=O)[C@@H]1CCCN1C(=O)[C@H](CO)NC(=O)[C@H](CO)NC(=O)[C@H](Cc1c[nH]cn1)NC(=O)[C@H](CCCNC(=N)N)NC(=O)[C@H](CC(C)C)NC(=O)[C@H](Cc1ccccc1)NC(=O)[C@H](CCC(=O)O)NC(=O)[C@H](C)NC(=O)[C@H](CC(C)C)NC(=O)[C@H](CCCNC(=N)N)NC(=O)[C@H](CCC(N)=O)NC(=O)[C@@H](NC(=O)[C@H](C)NC(=O)[C@@H]1CSSC[C@H](NC(=O)[C@@H](N)CCCCNC(=O)CC[C@H](NC(=O)CCCCCCCCCCCCCCCCCCC(=O)O)C(=O)O)C(=O)N[C@@H](CC(N)=O)C(=O)N[C@@H]([C@@H](C)O)C(=O)N[C@@H](C)C(=O)N[C@@H]([C@@H](C)O)C(=O)N1)[C@@H](C)O)C(=O)N1CCC[C@H]1C(=O)N[C@@H](CO)C(=O)N[C@@H](CO)C(=O)N[C@H](C(=O)N[C@@H](CC(N)=O)C(=O)N[C@H](C(=O)NCC(=O)N1CCC[C@H]1C(=O)N[C@@H](CCCNC(=N)N)C(=O)N[C@H](C(=O)N[C@@H](Cc1ccc(O)cc1)C(N)=O)[C@@H](C)O)C(C)C)[C@@H](C)O
With B2 the “Ratio hCT/hAmylin funct.” value [1] was 17 ratio, the “hCTR funct. EC50 (pM)” value [1] was 6380 pM and the IC50 [2] was 0.163 nM.

B3: N^ε1-[(4S)-4-carboxy-4-[[(4S)-4-carboxy-4-(19-carboxynonadecanoylamino)butanoyl]amino]butanoyl]-[Arg17,Pro21,Pro27,Pro31,Pro34,Arg35]-h-amylin (peptide)
peptide: K([γGlu-γGlu-C20 diacid])CNTATCATQRLANFLRHSSPNFGAIPSSTPVGPRTY-NH2
modifications: disulfide 2-7; N-terminus assumed
SMILES: CC[C@H](C)[C@H](NC(=O)[C@H](C)NC(=O)CNC(=O)[C@H](Cc1ccccc1)NC(=O)[C@H](CC(N)=O)NC(=O)[C@@H]1CCCN1C(=O)[C@H](CO)NC(=O)[C@H](CO)NC(=O)[C@H](Cc1c[nH]cn1)NC(=O)[C@H](CCCNC(=N)N)NC(=O)[C@H](CC(C)C)NC(=O)[C@H](Cc1ccccc1)NC(=O)[C@H](CC(N)=O)NC(=O)[C@H](C)NC(=O)[C@H](CC(C)C)NC(=O)[C@H](CCCNC(=N)N)NC(=O)[C@H](CCC(N)=O)NC(=O)[C@@H](NC(=O)[C@H](C)NC(=O)[C@@H]1CSSC[C@H](NC(=O)[C@@H](N)CCCCNC(=O)CC[C@H](NC(=O)CC[C@H](NC(=O)CCCCCCCCCCCCCCCCCCC(=O)O)C(=O)O)C(=O)O)C(=O)N[C@@H](CC(N)=O)C(=O)N[C@@H]([C@@H](C)O)C(=O)N[C@@H](C)C(=O)N[C@@H]([C@@H](C)O)C(=O)N1)[C@@H](C)O)C(=O)N1CCC[C@H]1C(=O)N[C@@H](CO)C(=O)N[C@@H](CO)C(=O)N[C@H](C(=O)N1CCC[C@H]1C(=O)N[C@H](C(=O)NCC(=O)N1CCC[C@H]1C(=O)N[C@@H](CCCNC(=N)N)C(=O)N[C@H](C(=O)N[C@@H](Cc1ccc(O)cc1)C(N)=O)[C@@H](C)O)C(C)C)[C@@H](C)O
In the case of B3, the “Ratio hCT/hAmylin funct.” value [1] is reported as 26 ratio, the “hCTR funct. EC50 (pM)” value [1] is reported as 8660 pM and the IC50 [2] is reported as 0.88 nM.
